The values that follow come from patent US20260015399A1 (Boehringer Ingelheim, published 2026).

Sequences and labels used below:
T1: human NPY2 receptor (human, UniProt P49146 1-381)
T1 construct: whole, on cells; also called hNPY2-R; hNPY2R
T1 sequence (looked up): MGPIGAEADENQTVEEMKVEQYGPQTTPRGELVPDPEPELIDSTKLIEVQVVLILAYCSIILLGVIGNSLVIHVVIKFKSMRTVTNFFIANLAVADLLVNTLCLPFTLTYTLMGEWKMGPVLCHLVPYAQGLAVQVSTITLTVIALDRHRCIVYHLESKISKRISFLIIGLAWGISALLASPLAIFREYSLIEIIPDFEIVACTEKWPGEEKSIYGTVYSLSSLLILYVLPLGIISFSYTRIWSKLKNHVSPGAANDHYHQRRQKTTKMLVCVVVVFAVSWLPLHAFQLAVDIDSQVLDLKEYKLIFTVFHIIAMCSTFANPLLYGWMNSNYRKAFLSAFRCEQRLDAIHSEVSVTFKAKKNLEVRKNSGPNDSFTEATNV

B1: Compound 133 (peptide)
peptide: Isovaleryl-APAK([Ahx-γGlu-C18 diacid])PEEDAEPEELQRYYVSLRHYYNWLTRQRY-NH2
SMILES: CC(C)CC(=O)N[C@@H](C)C(=O)N1CCC[C@H]1C(=O)N[C@@H](C)C(=O)N[C@@H](CCCCNC(=O)CCCCCNC(=O)CC[C@H](NC(=O)CCCCCCCCCCCCCCCCC(=O)O)C(=O)O)C(=O)N1CCC[C@H]1C(=O)N[C@@H](CCC(=O)O)C(=O)N[C@@H](CCC(=O)O)C(=O)N[C@@H](CC(=O)O)C(=O)N[C@@H](C)C(=O)N[C@@H](CCC(=O)O)C(=O)N1CCC[C@H]1C(=O)N[C@@H](CCC(=O)O)C(=O)N[C@@H](CCC(=O)O)C(=O)N[C@@H](CC(C)C)C(=O)N[C@@H](CCC(N)=O)C(=O)N[C@@H](CCCNC(=N)N)C(=O)N[C@@H](Cc1ccc(O)cc1)C(=O)N[C@@H](Cc1ccc(O)cc1)C(=O)N[C@H](C(=O)N[C@@H](CO)C(=O)N[C@@H](CC(C)C)C(=O)N[C@@H](CCCNC(=N)N)C(=O)N[C@@H](Cc1c[nH]cn1)C(=O)N[C@@H](Cc1ccc(O)cc1)C(=O)N[C@@H](Cc1ccc(O)cc1)C(=O)N[C@@H](CC(N)=O)C(=O)N[C@@H](Cc1c[nH]c2ccccc12)C(=O)N[C@@H](CC(C)C)C(=O)N[C@H](C(=O)N[C@@H](CCCNC(=N)N)C(=O)N[C@@H](CCC(N)=O)C(=O)N[C@@H](CCCNC(=N)N)C(=O)N[C@@H](Cc1ccc(O)cc1)C(N)=O)[C@@H](C)O)C(C)C
B2: Compound 137 (peptide)
peptide: Isovaleryl-APEK([Ahx-γGlu-C18 diacid])PEEDATPEELQRYYVSLRHYYNWLLRQRY-NH2
SMILES: CC(C)CC(=O)N[C@@H](C)C(=O)N1CCC[C@H]1C(=O)N[C@@H](CCC(=O)O)C(=O)N[C@@H](CCCCNC(=O)CCCCCNC(=O)CC[C@H](NC(=O)CCCCCCCCCCCCCCCCC(=O)O)C(=O)O)C(=O)N1CCC[C@H]1C(=O)N[C@@H](CCC(=O)O)C(=O)N[C@@H](CCC(=O)O)C(=O)N[C@@H](CC(=O)O)C(=O)N[C@@H](C)C(=O)N[C@H](C(=O)N1CCC[C@H]1C(=O)N[C@@H](CCC(=O)O)C(=O)N[C@@H](CCC(=O)O)C(=O)N[C@@H](CC(C)C)C(=O)N[C@@H](CCC(N)=O)C(=O)N[C@@H](CCCNC(=N)N)C(=O)N[C@@H](Cc1ccc(O)cc1)C(=O)N[C@@H](Cc1ccc(O)cc1)C(=O)N[C@H](C(=O)N[C@@H](CO)C(=O)N[C@@H](CC(C)C)C(=O)N[C@@H](CCCNC(=N)N)C(=O)N[C@@H](Cc1c[nH]cn1)C(=O)N[C@@H](Cc1ccc(O)cc1)C(=O)N[C@@H](Cc1ccc(O)cc1)C(=O)N[C@@H](CC(N)=O)C(=O)N[C@@H](Cc1c[nH]c2ccccc12)C(=O)N[C@@H](CC(C)C)C(=O)N[C@@H](CC(C)C)C(=O)N[C@@H](CCCNC(=N)N)C(=O)N[C@@H](CCC(N)=O)C(=O)N[C@@H](CCCNC(=N)N)C(=O)N[C@@H](Cc1ccc(O)cc1)C(N)=O)C(C)C)[C@@H](C)O
B3: Compound 138 (peptide)
peptide: Isovaleryl-APEK([Ahx-γGlu-C18 diacid])PEEDAEPEELQEYYVSLRHYYNWLTRQRY-NH2
SMILES: CC(C)CC(=O)N[C@@H](C)C(=O)N1CCC[C@H]1C(=O)N[C@@H](CCC(=O)O)C(=O)N[C@@H](CCCCNC(=O)CCCCCNC(=O)CC[C@H](NC(=O)CCCCCCCCCCCCCCCCC(=O)O)C(=O)O)C(=O)N1CCC[C@H]1C(=O)N[C@@H](CCC(=O)O)C(=O)N[C@@H](CCC(=O)O)C(=O)N[C@@H](CC(=O)O)C(=O)N[C@@H](C)C(=O)N[C@@H](CCC(=O)O)C(=O)N1CCC[C@H]1C(=O)N[C@@H](CCC(=O)O)C(=O)N[C@@H](CCC(=O)O)C(=O)N[C@@H](CC(C)C)C(=O)N[C@@H](CCC(N)=O)C(=O)N[C@@H](CCC(=O)O)C(=O)N[C@@H](Cc1ccc(O)cc1)C(=O)N[C@@H](Cc1ccc(O)cc1)C(=O)N[C@H](C(=O)N[C@@H](CO)C(=O)N[C@@H](CC(C)C)C(=O)N[C@@H](CCCNC(=N)N)C(=O)N[C@@H](Cc1c[nH]cn1)C(=O)N[C@@H](Cc1ccc(O)cc1)C(=O)N[C@@H](Cc1ccc(O)cc1)C(=O)N[C@@H](CC(N)=O)C(=O)N[C@@H](Cc1c[nH]c2ccccc12)C(=O)N[C@@H](CC(C)C)C(=O)N[C@H](C(=O)N[C@@H](CCCNC(=N)N)C(=O)N[C@@H](CCC(N)=O)C(=O)N[C@@H](CCCNC(=N)N)C(=O)N[C@@H](Cc1ccc(O)cc1)C(N)=O)[C@@H](C)O)C(C)C
B4: Compound 135 (peptide)
peptide: Isovaleryl-APEK([Ahx-γGlu-C18 diacid])PEAAAEPEEIQRYYVALRHYYNWLTRQRY-NH2
SMILES: CC[C@H](C)[C@H](NC(=O)[C@H](CCC(=O)O)NC(=O)[C@H](CCC(=O)O)NC(=O)[C@@H]1CCCN1C(=O)[C@H](CCC(=O)O)NC(=O)[C@H](C)NC(=O)[C@H](C)NC(=O)[C@H](C)NC(=O)[C@H](CCC(=O)O)NC(=O)[C@@H]1CCCN1C(=O)[C@H](CCCCNC(=O)CCCCCNC(=O)CC[C@H](NC(=O)CCCCCCCCCCCCCCCCC(=O)O)C(=O)O)NC(=O)[C@H](CCC(=O)O)NC(=O)[C@@H]1CCCN1C(=O)[C@H](C)NC(=O)CC(C)C)C(=O)N[C@@H](CCC(N)=O)C(=O)N[C@@H](CCCNC(=N)N)C(=O)N[C@@H](Cc1ccc(O)cc1)C(=O)N[C@@H](Cc1ccc(O)cc1)C(=O)N[C@H](C(=O)N[C@@H](C)C(=O)N[C@@H](CC(C)C)C(=O)N[C@@H](CCCNC(=N)N)C(=O)N[C@@H](Cc1c[nH]cn1)C(=O)N[C@@H](Cc1ccc(O)cc1)C(=O)N[C@@H](Cc1ccc(O)cc1)C(=O)N[C@@H](CC(N)=O)C(=O)N[C@@H](Cc1c[nH]c2ccccc12)C(=O)N[C@@H](CC(C)C)C(=O)N[C@H](C(=O)N[C@@H](CCCNC(=N)N)C(=O)N[C@@H](CCC(N)=O)C(=O)N[C@@H](CCCNC(=N)N)C(=O)N[C@@H](Cc1ccc(O)cc1)C(N)=O)[C@@H](C)O)C(C)C
B5: Compound 134 (peptide)
peptide: Isovaleryl-APEK([Ahx-γGlu-C18 diacid])PEEDATPEEQQRYYVSLRHYYNWLTRQRY-NH2
SMILES: CC(C)CC(=O)N[C@@H](C)C(=O)N1CCC[C@H]1C(=O)N[C@@H](CCC(=O)O)C(=O)N[C@@H](CCCCNC(=O)CCCCCNC(=O)CC[C@H](NC(=O)CCCCCCCCCCCCCCCCC(=O)O)C(=O)O)C(=O)N1CCC[C@H]1C(=O)N[C@@H](CCC(=O)O)C(=O)N[C@@H](CCC(=O)O)C(=O)N[C@@H](CC(=O)O)C(=O)N[C@@H](C)C(=O)N[C@H](C(=O)N1CCC[C@H]1C(=O)N[C@@H](CCC(=O)O)C(=O)N[C@@H](CCC(=O)O)C(=O)N[C@@H](CCC(N)=O)C(=O)N[C@@H](CCC(N)=O)C(=O)N[C@@H](CCCNC(=N)N)C(=O)N[C@@H](Cc1ccc(O)cc1)C(=O)N[C@@H](Cc1ccc(O)cc1)C(=O)N[C@H](C(=O)N[C@@H](CO)C(=O)N[C@@H](CC(C)C)C(=O)N[C@@H](CCCNC(=N)N)C(=O)N[C@@H](Cc1c[nH]cn1)C(=O)N[C@@H](Cc1ccc(O)cc1)C(=O)N[C@@H](Cc1ccc(O)cc1)C(=O)N[C@@H](CC(N)=O)C(=O)N[C@@H](Cc1c[nH]c2ccccc12)C(=O)N[C@@H](CC(C)C)C(=O)N[C@H](C(=O)N[C@@H](CCCNC(=N)N)C(=O)N[C@@H](CCC(N)=O)C(=O)N[C@@H](CCCNC(=N)N)C(=O)N[C@@H](Cc1ccc(O)cc1)C(N)=O)[C@@H](C)O)C(C)C)[C@@H](C)O
B6: Compound 139 (peptide)
peptide: Isovaleryl-APEK([Ahx-γGlu-C18 diacid])PEEEASPAELQRYYVSLRHYYNWLTRQRY-NH2
SMILES: CC(C)CC(=O)N[C@@H](C)C(=O)N1CCC[C@H]1C(=O)N[C@@H](CCC(=O)O)C(=O)N[C@@H](CCCCNC(=O)CCCCCNC(=O)CC[C@H](NC(=O)CCCCCCCCCCCCCCCCC(=O)O)C(=O)O)C(=O)N1CCC[C@H]1C(=O)N[C@@H](CCC(=O)O)C(=O)N[C@@H](CCC(=O)O)C(=O)N[C@@H](CCC(=O)O)C(=O)N[C@@H](C)C(=O)N[C@@H](CO)C(=O)N1CCC[C@H]1C(=O)N[C@@H](C)C(=O)N[C@@H](CCC(=O)O)C(=O)N[C@@H](CC(C)C)C(=O)N[C@@H](CCC(N)=O)C(=O)N[C@@H](CCCNC(=N)N)C(=O)N[C@@H](Cc1ccc(O)cc1)C(=O)N[C@@H](Cc1ccc(O)cc1)C(=O)N[C@H](C(=O)N[C@@H](CO)C(=O)N[C@@H](CC(C)C)C(=O)N[C@@H](CCCNC(=N)N)C(=O)N[C@@H](Cc1c[nH]cn1)C(=O)N[C@@H](Cc1ccc(O)cc1)C(=O)N[C@@H](Cc1ccc(O)cc1)C(=O)N[C@@H](CC(N)=O)C(=O)N[C@@H](Cc1c[nH]c2ccccc12)C(=O)N[C@@H](CC(C)C)C(=O)N[C@H](C(=O)N[C@@H](CCCNC(=N)N)C(=O)N[C@@H](CCC(N)=O)C(=O)N[C@@H](CCCNC(=N)N)C(=O)N[C@@H](Cc1ccc(O)cc1)C(N)=O)[C@@H](C)O)C(C)C

*1 amine or outer side, *2 acyl side, *3 side chain or, on linkers, in order; H or OH if unused. Side-chain parts run from the residue outwards. The star is where a group is joined. C18 diacid = O=C(O)CCCCCCCCCCCCCCCCC(=O)*; γGlu = O=C(O)[C@H](CCC(=O)[*:2])N[*:1]; Isovaleryl = CC(C)CC(=O)*; Ahx = NCCCCCC(=O)O

What is called Ki is the dissociation constant of the complex between target and ligand, obtained from inhibition or displacement. Read a high Ki as a looser hold on the target.

This assay addresses T1, human NPY2 receptor. As to the kind of experiment: RLB: displacement of 125I-PYY(1-36) from hNPY2R membranes. A general note: Displacement assays read how much labelled ligand stays bound in the presence of the test substance.
B1 came in with a Ki of 4.68 nM.
Under B2 stands 49.6 nM; under B3, 12.5 nM.
Under B4 stands 3.83 nM; under B5, 2.8 nM.
With B6, the affinity, expressed as Ki, was 3.6 nM.
